Blank lines part the entries; values can stand above or below the molecule they belong to.
Experiments:
prostasin [1] = target: T1, prostasin (Homo sapiens, UniProt Q16651); experiment: Complex formation of recombinant GST-PN-1 with recombinant prostasin (immunoblot); assay type: binding; set-up: made in house; conditions: for complex formation of GST-PN-1 fusion protein with prostasin: 0.5 micrograms recombinant prostasin, 37 degrees C., 60 minutes
Description: To establish if mPBP is indeed protease nexin-1, mouse and human protease nexin-1 (PN-1) cDNA were cloned into the pGEX-6P-1 expression vector. The recombinant protein products have the schistosomal glutathione-S-transferase (GST) fused to t he N-terminus of the PN-1. The GST fusion proteins were affinity-purified using glutathione-conjugated agarose-beads. For each type of recombinant protein, cleared supernatant of cell lysate from one liter of culture was incubated with 1 ml of […] glutathione-beads. The beads were eluted with 1 ml of fresh 10 mM glutathione in 50 mM Tris-Hcl, pH 8.0. Twenty microliters of the eluent were incubated with 0.5 micrograms of recombinant prostasin at 37 degrees C. for 60 minutes in the absence or presence of aprotinin. Both the GST-mPN-1 (FIG. 8, lane 1 alone at 64 kDa) and the GST-hPN-1 (FIG. 8, lanes 2 and 5). […] An immunoreactive band at 30 kDa and two other minor immunoreactive bands at 42 kDa and 60 kDa were likely the products of non-specific degradation of the recombinant PN-1, since no protease inhibitors were added in the cell lysate during purification.

prostasin-mPBP complex = target: T2, prostasin-mPBP complex (Homo sapiens, UniProt Q16651); experiment: Inhibition of complex formation between prostasin and mPBP (western blot); assay type: binding
T2 construct: made in house; mPBP: purified from mouse seminal vesicle fluid
Description: (§1) The procedures were performed according to Chen et al. Briefly, purified recombinant prostasin was incubated with samples from each purification step or the final purified mPBP at 37 degrees C. for 1 hour or for various times as indicated. The binding reaction was stopped by the addition of SDS sample buffer (1×SDS sample buffer=62.5 mM Tris-Hcl at Ph 6.8, 2% (v/v) glycerol, 2% SDS (w/v) and 2% Beta-mercaptoethanol). The reaction mixtures were then boiled for 5 min, and resolved in 10% SDS-polyacrylamide gels. The resolved proteins were then transferred to nitrocellulose membranes, and analyzed with either a prostasin antibody or the mPBP antibody. Signals were detected using an ECL detection procedure with the WestPico reagents (Pierce, Rockford, Ill.) following the manufacturer's protocol. The membrane was then exposed to X-ray film (Midwest Scientific, St. Louis, Mo.) The prostasin antibody was used at 1:2,000 dilution, the mPBP antibody was used at 1:10,000 dilution, and the secondary antibody (goat anti-rabbit IgG, Sigma-Aldrich) was used at 1:10,000 dilution. All antibodies were diluted in 5% non-fat milk in TBS-T (TBS-T=20 mM Tris-Hcl at pH 7.6, 0.14M NaCl and 0.1% Tween-20).
(§2) The purified mPBP was tested for its biochemical activities using the prostasin binding assay. Complex formation between mPBP and purified prostasin was analyzed by western blotting using the mPBP antibody and a prostasin antibody. […] The complex was detected after 30 seconds of incubation and progressed during the incubation time course (60 minutes). […] The complex formation of prostasin and mPBP was used as a control (FIG. 4C, lane 2).
(§3) It has been known that PN-1 can form complexes with various serine proteases, including thrombin. […] We also tested if the complex is pH dependent because prostasins's optimum pH is 9.0. […] We further tested if heparin may have a different effect on the complex formation between prostasin-mPBP versus on that between thrombin-mPBP.

thrombin-mPBP complex = target: T3, thrombin-mPBP complex (Homo sapiens, UniProt P00734); experiment: Effect of heparin on complex formation between thrombin and mPBP; assay type: binding; conditions: heparin at 0.25 unit/reaction, FIG. 6B
T3 construct: mPBP: purified from mouse seminal vesicle fluid
From the text: as §3

prostasin [2] = target: T1, prostasin; experiment: Enzymatic assay with QAR-AMC substrate (residual activity of prostasin); assay type: biochemical; set-up: made in house
Description: Recombinant human prostasin was purified as described in Chen et al. A synthetic substrate, N-t-Boc-Gln-Ala-Arg-7-amido-4-methyl coumarin (QAR-AMC) was purchased from Sigma-Aldrich. The purified mPBP (concentration range 0-0.4 micromolar) was incubated with prostasin (0.8 micromolar) for 30 mins at 37 degrees C. The binding reaction mixture (20 microliters) was then added to 80 microliters of […] Tris-HCL) pH 8.0/0.1% bovine serum albumin containing the QAR-AMC substrate (final concentration: 100 micromolar) in 96-well microtiter plates (Costar 3903, Cambridge, Mass.). The velocity of substrate hydrolysis was measured using a Wallac 1420 Victor mulitlabel counter at wavelength 355 nm and wavelength 460 nm. The residual activity of prostasin (velocity of the inhibited enzyme reaction/velocity of the uninhibited enzyme reaction) as plotted versus the mPBP concentration.
QAR-AMC was used as a substrate for prostasin to test the inhibitory activity of the purified mPBP. Pprostasin (0.8 micromolar) was incubated with 0, 0.05, 0.1, 0.2 or 0.4 micromolar mPBP at 37 degress C. for 30 mins. The reaction mixture was then to the assay buffer containing a final concentration of 100 micromolar QAR-AMC substrate.

prostasin [3] = target: T1, prostasin; experiment: Membrane-overlay zymography of prostasin activity; assay type: biochemical
thrombin [4] = target: T4, thrombin (Homo sapiens, UniProt P00734); experiment: Complex formation between thrombin and mPBP; assay type: binding
From the text: as §3

[5] = target: T5, purified recombinant prostasin (Homo sapiens, UniProt Q16651); experiment: Prostasin-binding assay (complex formation, western blot)
T5 construct: made in house
Description: as §1, §2

thrombin [6] = target: T4, thrombin; conditions: cited from earlier work
factor Xa = conditions: cited from earlier work
[7] = binding conditions of increasing pH

T1 sequence (Q16651 33-343): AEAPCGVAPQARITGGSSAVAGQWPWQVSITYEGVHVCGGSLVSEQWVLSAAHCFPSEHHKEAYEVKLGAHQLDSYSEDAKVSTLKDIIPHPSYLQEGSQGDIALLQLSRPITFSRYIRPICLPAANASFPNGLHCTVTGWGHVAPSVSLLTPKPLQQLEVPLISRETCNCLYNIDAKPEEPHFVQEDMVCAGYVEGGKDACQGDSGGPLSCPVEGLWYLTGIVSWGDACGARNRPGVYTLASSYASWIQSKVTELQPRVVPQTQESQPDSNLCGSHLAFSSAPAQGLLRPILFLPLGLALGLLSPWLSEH
T5 sequence (Q16651 33-343): as above

- effect on GST-PN-1/prostasin complex formation (prostasin [1]; in the presence of aprotinin, FIG. 8 lanes 3 and 6): inhibited
- effect on prostasin-mPBP complex formation (prostasin-mPBP complex; FIG. 4C): inhibited
Molecule: aprotinin [reference compound]

Molecule: O=S(=O)(F)Cc1ccccc1 [PMSF]
- effect on prostasin-mPBP complex formation (prostasin-mPBP complex; FIG. 4C): inhibited

- effect on thrombin-mPBP complex formation (thrombin-mPBP complex): not between thrombin-PMP
- effect on prostasin-mPBP complex formation (prostasin-mPBP complex; FIG. 4C): inhibited
- effect on prostasin-mPBP complex formation (prostasin-mPBP complex; heparin at 0.25 unit/reaction, FIG. 6B): completely abolished
Molecule: heparin
- effect on prostasin inhibition by mPBP (prostasin [2]; pre-incubation of mPBP and heparin, QAR-AMC substrate): able to prevent prostasin inhibition by mPBP

- complex formation of GST-PN-1 fusion protein with prostasin (prostasin [1]): form a 100 kDa complex
B1: GST-hPN-1: recombinant human PN-1 with glutathione-S-transferase fused to the N-terminus (protein)
chain: SHFNPLSLEELGSNTGIQVFNQIVKSRPHDNIVISPHGIASVLGMLQLGADGRTKKQLAMVMRYGVNGVGKILKKINKAIVSKKNKDIVTVANAVFVKNASEIEVPFVTRNKDVFQCEVRNVNFEDPASACDSINAWVKNETRDMIDNLLSPDLIDGVLTRLVLVNAVYFKGLWKSRFQPENTKKRTFVAADGKSYQVPMLAQLSVFRCGSTSAPNDLWYNFIELPYHGESISMLIALPTESSTPLSAIIPHISTKTIDSWMSIMVPKRVQVILPKFTAVAQTDLKEPLKVLGITDMFDSSKANFAKITTGSENLHVSHILQKAKIEVSEDGTKASAATTAILIARSSPPWFIVDRPFLFFIRHNPTGAVLFMGQINKP
modifications: left off: a dimerising Fc or GST
notes: recombinant human PN-1 with glutathione-S-transferase fused to the N-terminus

- complex formation of GST-PN-1 fusion protein with prostasin (prostasin [1]): form a 100 kDa complex
B2: GST-mPN-1: recombinant mouse PN-1 with glutathione-S-transferase fused to the N-terminus (protein)
chain: SQFNSLSLEELGSNTGIQVFNQIIKSRPHENVVVSPHGIASILGMLQLGADGKTKKQLSTVMRYNVNGVGKVLKKINKAIVSKKNKDIVTVANAVFLRNGFKMEVPFAVRNKDVFQCEVQNVNFQDPASASESINFWVKNETRGMIDNLLSPNLIDGALTRLVLVNAVYFKGLWKSRFQPESTKKRTFVAGDGKSYQVPMLAQLSVFRSGSTRTPNGLWYNFIELPYHGESISMLIALPTESSTPLSAIIPHITTKTIDSWMNTMVPKRMQLVLPKFTAVAQTDLKEPLKALGITEMFEPSKANFTKITRSESLHVSHILQKAKIEVSEDGTKASAATTAILIARSSPPWFIVDRPFLFSIRHNPTGAILFLGQVNKP
modifications: left off: a dimerising Fc or GST
notes: recombinant mouse PN-1 with glutathione-S-transferase fused to the N-terminus

- inhibition of prostasin's activity by membrane-overlay zymography (prostasin [3]): inhibits prostasin's activity
- pH dependence of complex formation of mPBP and thrombin (thrombin [4]; [7]): somewhat decreased with increasing pH
- pH dependence of complex formation of mPBP and prostasin [5, 7]: increased with higher pH
- complex formation with prostasin ([5]; purified mPBP, western blot): formed a complex with prostasin
- incubation time after which the prostasin-mPBP complex was detected ([5]; time course up to 60 minutes, 37 degrees C.): 30 s
- inhibition of prostasin's activity (prostasin [2]; prostasin 0.8 micromolar with 0-0.4 micromolar mPBP, 37 degrees C., 30 mins, 100 micromolar QAR-AMC): inhibited in a dose dependent manner
B3: mPBP: mouse prostasin-binding protein purified from mouse seminal vesicle fluid, 45 kDa; identified as the serpin protease nexin-1 (protein)
chain: SQFNSLSLEELGSNTGIQVFNQIIKSRPHENVVVSPHGIASILGMLQLGADGKTKKQLSTVMRYNVNGVGKVLKKINKAIVSKKNKDIVTVANAVFLRNGFKMEVPFAVRNKDVFQCEVQNVNFQDPASASESINFWVKNETRGMIDNLLSPNLIDGALTRLVLVNAVYFKGLWKSRFQPESTKKRTFVAGDGKSYQVPMLAQLSVFRSGSTRTPNGLWYNFIELPYHGESISMLIALPTESSTPLSAIIPHITTKTIDSWMNTMVPKRMQLVLPKFTAVAQTDLKEPLKALGITEMFEPSKANFTKITRSESLHVSHILQKAKIEVSEDGTKASAATTAILIARSSPPWFIVDRPFLFSIRHNPTGAILFLGQVNKP
- complex formation with thrombin (thrombin [4]; purified mPBP): formed a complex with prostasin as well as thrombin

B4: PN-1: protease nexin-1, a serine protease inhibitor (serpin) (protein)
chain: SQFNSLSLEELGSNTGIQVFNQIIKSRPHENVVVSPHGIASILGMLQLGADGKTKKQLSTVMRYNVNGVGKVLKKINKAIVSKKNKDIVTVANAVFLRNGFKMEVPFAVRNKDVFQCEVQNVNFQDPASASESINFWVKNETRGMIDNLLSPNLIDGALTRLVLVNAVYFKGLWKSRFQPESTKKRTFVAGDGKSYQVPMLAQLSVFRSGSTRTPNGLWYNFIELPYHGESISMLIALPTESSTPLSAIIPHITTKTIDSWMNTMVPKRMQLVLPKFTAVAQTDLKEPLKALGITEMFEPSKANFTKITRSESLHVSHILQKAKIEVSEDGTKASAATTAILIARSSPPWFIVDRPFLFSIRHNPTGAILFLGQVNKP
- inhibitory activity of PN-1 to thrombin in the presence of heparin (thrombin [6]): enhanced
- inhibitory activity of PN-1 to factor Xa in the presence of heparin (factor Xa): enhanced
